These results are taken from article PMC10952558, “Domain shuffling of a highly mutable ligand‐binding fold drives adhesin generation across the bacterial kingdom” (Proteins, 2023).

The target of series [1] is cellular fibronectin (human). The series is described as follows: MST; RED-NHS labeled cFn at 50 nM mixed with 16 concentrations (92 pM-3 uM) of the unlabeled protein; 637 mM NaCl, 2.7 mM KCl, 10 mM Na2HPO4, 1.8 mM KH2PO4, pH 7.4; 22-23°C; Monolith NT.115, MST power 40%, excitation 20%; triplicate; single-site dose-response model.
Series [2] concerns the molecule itself. As to the kind of experiment: crystal structure; dimeric SEC fraction of C-terminally His-tagged CshB_NR2; sitting drop, 20°C, 0.1 M SPG buffer pH 5, 25% w/v PEG 1500; molecular replacement with 5L2D; 1.4 Å.
Series [3] has as its target cellular fibronectin (human). As to the kind of experiment: MST; RED-NHS labeled cFn at 50 nM mixed with 16 concentrations (92 pM-3 uM) of the unlabeled protein; 637 mM NaCl, 2.7 mM KCl, 10 mM Na2HPO4, 1.8 mM KH2PO4, pH 7.4; 22-23°C; Monolith NT.115, MST power 40%, excitation 20%; triplicate; single-site dose-response model. The source holds these as a separate data set.

In general, Kd refers to the concentration at which binding is half-saturated. A low value points to a tighter complex. In general, stoichiometry N refers to a count of units in the complex or per binding partner.

Like-named read-outs stand apart in the source and are kept apart here.

Consider “CshB_NR2 (NR2 domain of CshB), N-terminally hexa-histidine-tagged variant (from UniProt A8AXC5 211-528) (domain or fragment)”, for which, in series [1], the Kd is 0.53 µM.

B1: CshB_NR2 (NR2 domain of CshB), C-terminally hexa-histidine-tagged variant, dimeric form (domain or fragment)
chain: WLDFSDSASWKNLDQRGGLKVGTTFTKEISPGYVVTLTVKELKPFNSTEIYKKRVAGTATEGTYNPDAENGFLTSAPYYGKTPPPSVTGAAQNEWTTIRDQGFNTQKRKTQLVYPMNSTNWGVKFDIEATYLGKRVAPTVVMADGEDANPGEFAIFTTNGTGWEYMGEWKMKSPAKEAYTVITKKMLDDEDVKRRGLLILKDKSVDWYKYLSPDTVTGGLGSQVFGPNRSNERTVPVVMTRGASEVGFYVASSGQQAMMMGFLVVDVSDAPESYGEAFHTISTRDSVTNDPINQPYLGTTPADIDVESSNDWVLDDKK
notes: CshB, Streptococcus gordonii DL1, NR2 domain, residues 211-528 of the full-length CshB polypeptide; amplified from chromosomal DNA, in pOPINE; Used for crystallization; Only the dimeric SEC fraction crystallised
Regarding B1, the “stoichiometry N” value in series [2] is 2.

B2: CshA_NR2 (NR2 domain of cell surface hydrophobicity protein A), wild type (domain or fragment)
chain: WVDFSDTASMKNLDPQGGFKVGTVFKKEISPGYVVTLTVTELKPFNSTEIYKKRVEGTPTANTYDPNAINSYLKGYKDYGKTPPSVTGRPQNKFSTIGGQGFDTQGRKTQIILPDDAVNWGIKFKVEATYRGNPVKPSVVMADGEDANPAEYGIFTTNGEGWEYVGEWMKGPRAKGPYTVMTEDMVKAFDKTRKDGLLILKDKSVDWSKYLSPDTVTGGLGSQVFGPIISASKAVPVVMTRGASEVGFYVATGGQQALMMGFLVVDSSDAPASYGEAYHTIGTRDSIANTPINQPYLGSTAADIDADSESDWTADDRE
The molecule B2 showed a Kd in series [3] of 0.302 µM.
